{"source": "patent US20180079808A1", "binders": {"B1": {"name": "13C5, murine version (antibody, from another filing, V domains shown)", "VH": "QVTLKESGPGILQPSQTLSLTCSFSGFSLSTSDMGVDWIRQPSGKGLEWLAHIWWDDVKRYNPALKSRLTISKDTSSSQVFLMLASVDTADTATYYCARTVSSGYIYYAMDYWGQGTSVTVSS", "VL": "DIQMTQTASSLSASLGDRVTISCRASQDIRNYLNWYQRKPDGTVKLLIFYTSKLHSGVPSRFSGSGSGTDYSLTIRNLEQEDIATYFCQQGNTLPLTFGGGTKLEIKR"}}, "key": {"[1]": {"biological_target": "cynomolgus monkey rIL-13 (cynomolgus monkey) (UniProt Q0PW92)", "sequence (Q0PW92 entry or part of it)": "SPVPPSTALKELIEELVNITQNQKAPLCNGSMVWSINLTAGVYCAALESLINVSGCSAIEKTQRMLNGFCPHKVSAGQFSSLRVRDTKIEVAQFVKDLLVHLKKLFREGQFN"}, "[2]": {"biological_target": "human IL-13 variant (R130Q) (human) (UniProt P35225)", "sequence (P35225 35-146 limits assumed, stated change not applied)": "as the sequence (Q0PW92 entry or part of it) above, with S1G, K10R, V42M, N67S, R83H, V100L counted along it"}, "[3]": {"biological_target": "human IL-13 wild type (human) (UniProt P35225)", "sequence (P35225 other isoform, or with tags, fused parts or gaps limits assumed)": "as the sequence (Q0PW92 entry or part of it) above, with S1G, K10R, V42M, N67S, R83H, V100L, Q110R counted along it"}, "[4]": {"biological_target": "human IL-13 variant (R130Q) (human) (UniProt P35225)", "test": "column 'Affinity, KD (nM)', hIL-13v; method not given"}, "[5]": {"biological_target": "human IL-13 wild type (human) (UniProt P35225)", "test": "column 'Affinity, KD (nM)', hIL-13wt; method not given"}}, "data": [{"binder": "B1", "values": [{"measurement": "Potency, IC50 (neutralisation of Cyno IL-13; assay not given)", "setting": "[1]", "value": 0.9, "unit": "nM"}, {"measurement": "Potency, IC50 (neutralisation of hIL-13v; assay not given)", "setting": "[2]", "value": 0.17, "unit": "nM"}, {"measurement": "Potency, IC50 (neutralisation of hIL-13wt; assay not given)", "setting": "[3]", "value": 0.19, "unit": "nM"}, {"measurement": "Kd", "setting": "[4]", "value": 0.076, "unit": "nM"}, {"measurement": "Kd", "setting": "[5]", "value": 0.075, "unit": "nM"}]}]}
